{
  "source": "patent US20110150875A1",
  "binders": {"B1": {"name": "His-tagged recombinant human matrilin-2 (mature, short isoform, Arg 24-Arg 937; R&D Systems Catalog Number 3044-MN) (protein, not shown: small tags and cut ends)", "chain": "RERSRGRSISRGRHARTHPQTALLESSCENKRADLVFIIDSSRSVNTHDYAKVKEFIVDILQFLDIGPDVTRVGLLQYGSTVKNEFSLKTFKRKSEVERAVKRMRHLSTGTMTGLAIQYALNIAFSEAEGARPLRENVPRVIMIVTDGRPQDSVAEVAAKARDTGILIFAIGVGQVDFNTLKSIGSEPHEDHVFLVANFSQIETLTSVFQKKLCTAHMCSTLEHNCAHFCINIPGSYVCRCKQGYILNSDQTTCRIQDLCAMEDHNCEQLCVNVPGSFVCQCYSGYALAEDGKRCVAVDYCASENHGCEHECVNADGSYLCQCHEGFALNPDKKTCTKIDYCASSNHGCQHECVNTDDSYSCHCLKGFTLNPDKKTCRRINYCALNKPGCEHECVNMEESYYCRCHRGYTLDPNGKTCSRVDHCAQQDHGCEQLCLNTEDSFVCQCSEGFLINEDLKTCSRVDYCLLSDHGCEYSCVNMDRSFACQCPEGHVLRSDGKTCAKLDSCALGDHGCEHSCVSSEDSFVCQCFEGYILREDGKTCRRKDVCQAIDHGCEHICVNSDDSYTCECLEGFRLAEDGKRCRRKDVCKSTHHGCEHICVNNGNSYICKCSEGFVLAEDGRRCKKCTEGPIDLVFVIDGSKSLGEENFEVVKQFVTGIIDSLTISPKAARVGLLQYSTQVHTEFTLRNFNSAKDMKKAVAHMKYMGKGSMTGLALKHMFERSFTQGEGARPLSTRVPRAAIVFTDGRAQDDVSEWASKAKANGITMYAVGVGKAIEEELQEIASEPTNKHLFYAEDFSTMDEISEKLKKGICEALEDSDGRQDSPAGELPKTVQQPTVQHRYLFEEDNLLRSTQKLSHSTKPSGSPLEEKHDQCKCENLIMFQNLANEEVRKLTQRLEEMTQRMEALENRLRYR"}},
  "key": {"[1]": {"molecular_target": "PCSK9-FLAG (Pan troglodytes (Chimpanzee); Homo sapiens (Human)) (UniProt A8T644)", "sequence (A8T644 31-152 limits assumed, chain 1 of 2)": "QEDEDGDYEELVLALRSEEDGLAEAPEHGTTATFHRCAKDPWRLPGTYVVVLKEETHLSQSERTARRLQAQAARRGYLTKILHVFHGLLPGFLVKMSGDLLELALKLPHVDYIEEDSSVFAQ", "sequence (A8T644 other isoform, or with tags, fused parts or gaps limits assumed, chain 2 of 2)": "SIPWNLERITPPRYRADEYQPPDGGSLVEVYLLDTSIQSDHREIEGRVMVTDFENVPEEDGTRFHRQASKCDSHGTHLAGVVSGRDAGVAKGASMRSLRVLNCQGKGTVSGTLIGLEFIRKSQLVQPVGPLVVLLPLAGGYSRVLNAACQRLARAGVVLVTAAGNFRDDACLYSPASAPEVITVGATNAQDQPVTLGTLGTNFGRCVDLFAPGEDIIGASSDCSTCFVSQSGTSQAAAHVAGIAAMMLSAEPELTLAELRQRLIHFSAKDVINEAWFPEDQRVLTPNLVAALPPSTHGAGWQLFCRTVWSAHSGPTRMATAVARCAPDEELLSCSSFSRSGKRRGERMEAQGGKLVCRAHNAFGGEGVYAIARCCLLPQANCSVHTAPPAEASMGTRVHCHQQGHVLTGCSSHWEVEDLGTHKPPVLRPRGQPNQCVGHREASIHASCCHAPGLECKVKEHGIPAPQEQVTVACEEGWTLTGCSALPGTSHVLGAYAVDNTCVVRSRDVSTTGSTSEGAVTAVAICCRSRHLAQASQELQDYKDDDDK", "test": "AlphaScreen competition, matrilin-2 at 3.8 nM; inhibition of PCSK9-Flag binding to His-tagged LDL receptor (competitor LDLR), relative to maximum signal without matrilin-2"}, "[2]": {"molecular_target": "PCSK9-FLAG (Pan troglodytes (Chimpanzee); Homo sapiens (Human)) (UniProt A8T644)", "test": "AlphaScreen, His-tagged matrilin-2 at log [Matrilin] uM -1.386041 with PCSK9-FLAG; triplicate, SD 1634"}, "[3]": {"molecular_target": "PCSK9-FLAG (Pan troglodytes (Chimpanzee); Homo sapiens (Human)) (UniProt A8T644)", "test": "AlphaScreen, His-tagged matrilin-2 at log [Matrilin] uM -3.294526 with PCSK9-FLAG; triplicate, SD 495"}, "[4]": {"molecular_target": "PCSK9-FLAG (Pan troglodytes (Chimpanzee); Homo sapiens (Human)) (UniProt A8T644)", "test": "AlphaScreen competition, matrilin-2 at 11 nM; inhibition of PCSK9-Flag binding to His-tagged LDL receptor (competitor LDLR), relative to maximum signal without matrilin-2"}, "[5]": {"molecular_target": "PCSK9-FLAG (Pan troglodytes (Chimpanzee); Homo sapiens (Human)) (UniProt A8T644)", "test": "AlphaScreen competition, matrilin-2 at 0.14 nM; inhibition of PCSK9-Flag binding to His-tagged LDL receptor (competitor LDLR), relative to maximum signal without matrilin-2"}, "[6]": {"molecular_target": "PCSK9-FLAG (Pan troglodytes (Chimpanzee); Homo sapiens (Human)) (UniProt A8T644)", "test": "AlphaScreen, His-tagged matrilin-2 at log [Matrilin] uM -2.340283 with PCSK9-FLAG; triplicate, SD 469"}, "[7]": {"molecular_target": "PCSK9-FLAG (Pan troglodytes (Chimpanzee); Homo sapiens (Human)) (UniProt A8T644)", "test": "AlphaScreen competition, matrilin-2 at 0.42 nM; inhibition of PCSK9-Flag binding to His-tagged LDL receptor (competitor LDLR), relative to maximum signal without matrilin-2"}, "[8]": {"molecular_target": "PCSK9-FLAG (Pan troglodytes (Chimpanzee); Homo sapiens (Human)) (UniProt A8T644)", "test": "AlphaScreen, His-tagged matrilin-2 at log [Matrilin] uM -0.9089195 with PCSK9-FLAG; triplicate, SD 3028"}, "[9]": {"molecular_target": "PCSK9-FLAG (Pan troglodytes (Chimpanzee); Homo sapiens (Human)) (UniProt A8T644)", "test": "AlphaScreen competition, matrilin-2 at 34 nM; inhibition of PCSK9-Flag binding to His-tagged LDL receptor (competitor LDLR), relative to maximum signal without matrilin-2"}, "[10]": {"molecular_target": "PCSK9-FLAG (Pan troglodytes (Chimpanzee); Homo sapiens (Human)) (UniProt A8T644)", "test": "AlphaScreen competition, matrilin-2 at 1.3 nM; inhibition of PCSK9-Flag binding to His-tagged LDL receptor (competitor LDLR), relative to maximum signal without matrilin-2"}, "[11]": {"molecular_target": "PCSK9-FLAG (Pan troglodytes (Chimpanzee); Homo sapiens (Human)) (UniProt A8T644)", "test": "AlphaScreen, His-tagged matrilin-2 at log [Matrilin] uM -0.4317983 with PCSK9-FLAG; triplicate, SD 2548"}, "[12]": {"molecular_target": "PCSK9-FLAG (Pan troglodytes (Chimpanzee); Homo sapiens (Human)) (UniProt A8T644)", "test": "AlphaScreen, His-tagged matrilin-2 at log [Matrilin] uM -3.771647 with PCSK9-FLAG; triplicate, SD 220"}, "[13]": {"molecular_target": "PCSK9-FLAG (Pan troglodytes (Chimpanzee); Homo sapiens (Human)) (UniProt A8T644)", "test": "AlphaScreen, His-tagged matrilin-2 at log [Matrilin] uM -2.817405 with PCSK9-FLAG; triplicate, SD 412"}, "[14]": {"molecular_target": "PCSK9-FLAG (Pan troglodytes (Chimpanzee); Homo sapiens (Human)) (UniProt A8T644)", "test": "AlphaScreen, His-tagged matrilin-2 at log [Matrilin] uM -1.863162 with PCSK9-FLAG; triplicate, SD 1131"}},
  "data": [
    {"binder": "B1", "values": [
      {"measurement": "% inhibition", "setting": "[1]", "value": 17.1, "unit": "%"},
      {"measurement": "Alphascreen Signal (counts per second)", "setting": "[2]", "value": 54000},
      {"measurement": "Alphascreen Signal (counts per second)", "setting": "[3]", "value": 18800},
      {"measurement": "% inhibition", "setting": "[4]", "value": 36, "unit": "%"},
      {"measurement": "% inhibition", "setting": "[5]", "value": 0.1, "unit": "%"},
      {"measurement": "Alphascreen Signal (counts per second)", "setting": "[6]", "value": 10100},
      {"measurement": "% inhibition", "setting": "[7]", "value": -0.4, "unit": "%"},
      {"measurement": "Alphascreen Signal (counts per second)", "setting": "[8]", "value": 222000},
      {"measurement": "% inhibition", "setting": "[9]", "value": 50.7, "unit": "%"},
      {"measurement": "% inhibition", "setting": "[10]", "value": 5.2, "unit": "%"},
      {"measurement": "Alphascreen Signal (counts per second)", "setting": "[11]", "value": 213000},
      {"measurement": "Alphascreen Signal (counts per second)", "setting": "[12]", "value": 20200},
      {"measurement": "Alphascreen Signal (counts per second)", "setting": "[13]", "value": 12900},
      {"measurement": "Alphascreen Signal (counts per second)", "setting": "[14]", "value": 14100}
    ]}
  ]
}
